# Test results taken from patent US20130045219A1 (UCB, published 2013).
# Like-named read-outs stand apart in the source and are kept apart here.
# T1: CD154 expressed on D1.1 Jurkat cells (UniProt P29965 1-261, limits assumed)
# T1 sequence (looked up): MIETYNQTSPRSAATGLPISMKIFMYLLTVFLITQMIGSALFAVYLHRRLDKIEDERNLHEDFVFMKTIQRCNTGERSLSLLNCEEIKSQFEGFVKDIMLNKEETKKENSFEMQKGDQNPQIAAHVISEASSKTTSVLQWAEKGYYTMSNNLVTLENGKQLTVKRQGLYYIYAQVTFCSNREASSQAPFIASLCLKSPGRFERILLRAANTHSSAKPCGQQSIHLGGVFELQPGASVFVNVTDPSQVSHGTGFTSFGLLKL
# B1: soluble human CD154 protein (extracellular domain) (ligand)
# chain: GDQNPQIAAHVISEASSKTTSVLQWAEKGYYTMSNNLVTLENGKQLTVKRQGLYYIYAQVTFCSNREASSQAPFIASLCLKSPGRFERILLRAANTHSSAKPCGQQSIHLGGVFELQPGASVFVNVTDPSQVSHGTGFTSFGLLKL
# notes: also called sCD154; recombinant extracellular domain of human CD154
# Assays:
# [1] = biological target: T1, CD154 expressed on D1.1 Jurkat cells; experiment: cell-based or functional assay
# [2] = biological target: T1, CD154 expressed on D1.1 Jurkat cells; experiment: flow cytometry: inhibition of the binding of hCD40-mFc-PE to CD154-expressing D1.1 Jurkat cells by serially diluted antibody (Example 5)
# Experimental: (§1) A flow cytometry-based assay was used to assess the binding of labeled CD40 to CD154-expressing D1.1 cells. D1.1 Jurkat cells (American Type Culture Collection) were maintained in RPMI 1640 medium (Gibco, 31870-025)) containing 10% (v/v) fetal calf serum (FCS), 2 mM glutamine (Invitrogen, 23030024), 1 mM sodium pyruvate (Invitrogen, 11360-039), 1% (v/v) D-(+)-glucose (Sigma, G8769) & 10 mM HEPES (Sigma, H0887). At time of assay, 100,000 D1.1 cells were incubated in 100 μL RPMI 1640 medium+10% FCS, in the presence or absence of serially diluted anti-CD154 antibody for 15 minutes at room temperature. 5 μL of a 1:75 dilution of hCD40-mFc-PE (Alexis Corp, ANC-504-050) was then added and incubated for a further 30 minutes at room temperature. After washing twice in phosphate-buffered saline (PBS) containing 1% (w/v) bovine serum albumin (BSA fraction V, Serologicals Proteins Inc, 81-068-5) and 0.02% (w/v) sodium azide (BDH, 103692K), cells were resuspended in 200 μL PBS/1% BSA/0.02% sodium azide and flow cytometry performed on a Becton Dickinson FACScan. The values for geometric mean fluorescence (FL2) were assessed in all cases.
# [3] = biological target: B1; experiment: Biacore (SPR): antibody or fragment captured on immobilized anti-human IgG (Fc- or Fab'-specific) F(ab')2, recombinant extracellular domain of human CD154 titrated over it (Example 4)
# Experimental: (§2) Catalogue Number: BR-1001-88, Biacore AB, Uppsala, Sweden. Buffer stored at 4° C. Immobilization buffer is Acetate 5.0 (being 10 mM sodium acetate pH 5.0). Catalogue number: BR-1003-51, Biacore AB, Uppsala, Sweden. Buffer stored at 4° C. Ligand capture: Affinipure F(ab′)₂ fragment goat anti-human IgG, Fab′ fragment specific (Catalogue number: 109-006-097) or Fc fragment specific (Catalogue number: 109-006-098), Jackson ImmunoResearch Inc (Pennsylvania, USA). Reagents stored at 4° C. […] Analyte: Recombinant extracellular domain of human CD154. Material was prepared at 2 mg/mL (40 μM) in phosphate-buffered saline, stored at 4° C., and diluted in HBE-EP running buffer for the assays. […] Regeneration Solution: 40 mM HCl prepared by dilution with distilled water from an 11.6 M stock solution (BDH, Poole, England. Catalogue number: 101254H). 5 mM NaOH prepared by dilution with distilled water from a 50 mM stock solution. Catalogue number: BR-1003-58, Biacore AB, Uppsala, Sweden. Assay Method: BIA (Biamolecular Interaction Analysis) was performed using a Biacore® 3000 (Biacore AB). Affinipure F(ab′)₂ fragment goat anti-human IgG, Fc- or Fab′-fragment specific (Jackson ImmunoResearch) were immobilized on a CM5 Sensor Chip via amine coupling chemistry to a capture level of ≈6000 response units (RUs). HBS-EP buffer (10 mM HEPES pH 7.4, 0.15 M NaCl, 3 mM EDTA, 0.005% Surfactant P20, Biacore AB) was used as the running buffer with a flow rate of 10 μl/min. Anti-CD154 antibodies or Fab fragments were used at concentrations such that, once captured by the immobilized anti-human IgG-Fc (or anti-human IgG Fab′) surface, gave a signal of ≈200 RUs. Human CD154 was titrated over the captured antibody, at various concentrations. 90 μL of CD154 was injected over the surface (association phase), followed by a 240 second dissociation phase, all at a flow rate of 30 μl/min. […] Background subtraction binding curves were analyzed using the BIAevaluation software (version 3.2) following standard procedures. Kinetic parameters were determined from the fitting algorithm.
# [4] = biological target: T1, CD154 expressed on D1.1 Jurkat cells; experiment: flow cytometry competition binding assay: serially diluted antibody against biotinylated 342 Fab on CD154-expressing D1.1 Jurkat cells, streptavidin-R-phycoerythrin detection (Example 6)
# Experimental: A flow cytometry-based assay was used to assess the binding of anti-CD154 antibody to CD154-expressing D1.1 cells. D1.1 Jurkat cells (American Type Culture Collection) were maintained in RPMI 1640 medium (Gibco, 31870-025) containing 10% (v/v) fetal calf serum (FCS), 2 mM glutamine (BioWhittaker, 17-605E) and […] (Mediatech, 30002107). […] The cells were washed three times in FACS buffer with centrifugation at 290×g for 3 minutes in between washes. A 1:500 dilution of streptavadin-R-phycoerythrin conjugate (Jackson Immunoresearch, 016-110-084) in […] FACS buffer was added and the cells were incubated for one hour at 4° C. The cells were washed once and fixed in PBS with 3% formaldehyde at room temperature for 10 minutes. The cells were resuspended in FACS buffer and run on a FacsCalibur (BD). The values for geometric mean fluorescence (FL2) were assessed in all cases.
# [5] = biological target: B1; experiment: Biacore; purified Fab captured on the chip, human CD154 extracellular domain as analyte
# [6] = biological target: T1, CD154 expressed on D1.1 Jurkat cells; experiment: cell-based or functional assay; remark: listed apart in the source
# [7] = biological target: T1, CD154 expressed on D1.1 Jurkat cells; experiment: flow cytometry: inhibition of the binding of hCD40-mFc-PE to CD154-expressing D1.1 Jurkat cells by serially diluted chimaeric Fab' (Example 5)
# Experimental: as §1
# [8] = biological target: B1; experiment: Biacore (SPR): antibody or Fab' captured on immobilized anti-human IgG (Fc- or Fab'-specific) F(ab')2, recombinant extracellular domain of human CD154 titrated over it (Example 4); chimaeric Fab'
# Experimental: as §2
# [9] = biological target: T2, CD40hFc (human CD40 fusion protein) (human, UniProt P25942 21-193, limits assumed); experiment: Biacore (SPR), sequential injections: CD40hFc captured, then soluble CD154 (ECD); concentrations not given (Example 10)
# T2 construct: not shown: human Fc (hFc)
# T2 sequence (P25942 21-193 limits assumed): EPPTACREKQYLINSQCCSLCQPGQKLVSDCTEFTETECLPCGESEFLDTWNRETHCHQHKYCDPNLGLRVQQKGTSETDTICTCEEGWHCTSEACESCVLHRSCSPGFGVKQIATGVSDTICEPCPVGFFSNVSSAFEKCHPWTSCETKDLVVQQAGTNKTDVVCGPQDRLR
binder,measurement,setting,value
"342 Fab'-PEG (Fab, V domains shown, PEG-maleimide on the single cysteine at the hinge) VH: EVQLVESGGGLVQPGGSLRLSCAVSGFSSTNYHVHWVRQAPGKGLEWMGVIWGDGDTSYNSVLKSRFTISRDTSKNTVYLQMNSLRAEDTAVYYCARQLTHYYVLAAWGQGTLVTVSS VL: DIQMTQSPSSLSASVGDRVTITCRASEDLYYNLAWYQRKPGKAPKLLIYDTYRLADGVPSRFSGSGSGTDYTLTISSLQPEDFASYYCQQYYKFPFTFGQGTKVEIKR",IC50 of inhibition of ICAM-1 (CD54) upregulation on CD40-expressing Ramos B cells co-cultured with CD154-expressing D1.1 Jurkat cells,[1],0.127 µg/mL
same,IC50,[2],0.035 µg/mL
same,Kd,[3],0.05 nM
same,IC50,[4],0.113 nM
"humanized 342 Fab, graft gL4gH1 (Fab, V domains shown) VH: EVQLVESGGGLVQPGGSLRLSCAVSGFSSTNYHVHWVRQAPGKGLEWMGVIWGDGDTSYNSVLKSRFTISRDTSKNTVYLQMNSLRAEDTAVYYCARQLTHYYVLAAWGQGTLVTVSS VL: DIQMTQSPSSLSASVGDRVTITCRASEDLYYNLAWYQRKPGKAPKLLIYDTYRLADGVPSRFSGSGSGTDYTLTISSLQPEDFASYYCQQYYKFPFTFGQGTKVEIKR",Kd,[5],0.00455 nM
same,koff,[5],6.97e-05 s⁻¹
same,kon,[5],1.53e+07 M⁻¹ s⁻¹
"anti-CD154 antibody 381 Fab′ (Fab, V domains shown) VH: EVPLVESGGGLVQPGRSMKLSCVASGFTFSDYYMAWVRQAPKKGLEWVASISYEGSSTYYGDSVKGRFTVSRDIAKSTLYLQMHSLKSEDTAIYYCARHDDSPGYYFDYWGQGVMVTVS VL: DIQMTQSPTSLSASLGETVSIECLAGEDISNVLAWYQQKSGGSPQLLIYAANRLQDGVPSRFSGSGSGTRYSLKISGMRPEDEADYFCQQTFRYPLTFGSGTKLELK",IC50 of inhibition of ICAM-1 (CD54) upregulation on CD40-expressing Ramos B cells co-cultured with CD154-expressing D1.1 Jurkat cells,[6],0.1 µg/mL
same,IC50,[7],0.022 µg/mL
same,Kd,[8],0.005 nM
"anti-CD154 antibody 338 (Fab, V domains shown) VH: QVQLTESGPGLVQPSQTLSLTCTVSGFSLTSHHISWVRQPPGKGLEWVGVMWNDGGTLYNSALKSRPSISRDTSKSQVFLKMSSLQTEDTATYYCARGKMHYYVLDAWGQGASVTVS VL: DIQMTQSPASLSASLGETVTIECRTSEDIYSNLAWYRQRPGKSPQLLIYDTNRLADGVPSRFSGSGSGTQYSLKINSLQSEDVASYFCQHYSNFPWTFGGDTKLELK",IC50 of inhibition of ICAM-1 (CD54) upregulation on CD40-expressing Ramos B cells co-cultured with CD154-expressing D1.1 Jurkat cells,[6],0.192 µg/mL
same,IC50,[7],0.006 µg/mL
same,Kd,[8],0.015 nM
B1,binding result,[9],binds
"342 Di-Fab'-PEG (other, the two Fab' are cross-linked and PEGylated; paragraph 96 describes DFM-PEG as two Fab' cross-linked with a PEGylated dimaleimide bridge) heavy chain (Fab'): EVQLVESGGGLVQPGGSLRLSCAVSGFSSTNYHVHWVRQAPGKGLEWMGVIWGDGDTSYNSVLKSRFTISRDTSKNTVYLQMNSLRAEDTAVYYCARQLTHYYVLAAWGQGTLVTVSSASTKGPSVFPLAPSSKSTSGGTAALGCLVKDYFPEPVTVSWNSGALTSGVHTFPAVLQSSGLYSLSSVVTVPSSSLGTQTYICNVNHKPSNTKVDKKVEPKSCDKTHTCAA light chain: DIQMTQSPSSLSASVGDRVTITCRASEDLYYNLAWYQRKPGKAPKLLIYDTYRLADGVPSRFSGSGSGTDYTLTISSLQPEDFASYYCQQYYKFPFTFGQGTKVEIKRTVAAPSVFIFPPSDEQLKSGTASVVCLLNNFYPREAKVQWKVDNALQSGNSQESVTEQDSKDSTYSLSSTLTLSKADYEKHKVYACEVTHQGLSSPVTKSFNRGEC",IC50 of inhibition of ICAM-1 (CD54) upregulation on CD40-expressing Ramos B cells co-cultured with CD154-expressing D1.1 Jurkat cells,[1],0.058 µg/mL
same,IC50,[2],0.032 µg/mL
same,Kd,[3],0.045 nM
same,IC50,[4],0.026 nM
"chimeric 342 Fab′ (unlabeled 342 Fab′ of FIG. 29C) (Fab, V domains shown, also called ch342 Fab) VH: QVQLKESGPGLVQPSETLSLTCTVSGFSSTNYHVHWVRQPPGKSLEWMGVIWGDGDTSYNSVLKSRLSITRDTSRSQVFLKMSSLQTEDTATYYCARQLTHYYVLAAWGQGASVTVS VL: DIQMTQSPASLSASLGETVTVECRASEDLYYNLAWYQRKPGNSPQLLIYDTYRLADGVPSRFSGSGSGTQYSLKINTLPSGDVASYFCQQYYKFPFTFGSGTKLELK",IC50 of inhibition of ICAM-1 (CD54) upregulation on CD40-expressing Ramos B cells co-cultured with CD154-expressing D1.1 Jurkat cells,[6],0.053 µg/mL
same,IC50,[7],0.008 µg/mL
same,Kd,[8],0.016 nM
